The values below come from IntAct's records for PubMed 26749241.

The chains are these.
B1: Succinate dehydrogenase [ubiquinone] iron-sulfur subunit, mitochondrial (Homo sapiens), P21912 (parent)
chain: MAAVVALSLRRRLPATTLGGACLQASRGAQTAAATAPRIKKFAIYRWDPDKAGDKPHMQTYEVDLNKCGPMVLDALIKIKNEVDSTLTFRRSCREGICGSCAMNINGGNTLACTRRIDTNLNKVSKIYPLPHMYVIKDLVPDLSNFYAQYKSIEPYLKKKDESQEGKQQYLQSIEEREKLDGLYECILCACCSTSCPSYWWNGDKYLGPAVLMQAYRWMIDSRDDFTEERLAKLQDPFSLYRCHTIMNCTRTCPKGLNPGKAIAEIKKMMATYKEKKASV
partner: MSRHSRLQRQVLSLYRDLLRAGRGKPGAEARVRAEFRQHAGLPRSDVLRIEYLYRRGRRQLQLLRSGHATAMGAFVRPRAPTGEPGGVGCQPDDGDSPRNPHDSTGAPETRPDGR
B2: Succinate dehydrogenase assembly factor 1, mitochondrial (Homo sapiens), A6NFY7 (parent)
chain: B1 partner
partner: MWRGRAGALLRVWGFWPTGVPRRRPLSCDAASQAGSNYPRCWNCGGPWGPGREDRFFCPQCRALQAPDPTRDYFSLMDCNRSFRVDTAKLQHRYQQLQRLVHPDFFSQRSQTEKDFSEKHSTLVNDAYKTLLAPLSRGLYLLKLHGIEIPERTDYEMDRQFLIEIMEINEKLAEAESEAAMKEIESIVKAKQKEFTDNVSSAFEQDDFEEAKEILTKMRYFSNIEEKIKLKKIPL
B3: Succinate dehydrogenase assembly factor 1, mitochondrial (Homo sapiens), A6NFY7 (parent)
chain: B1 partner
partner: B1 chain

The variants in the first assay derive from B1. To be noted: with sdhf1_human SDHAF1, A6NFY7.
On to MAAVVALSLRRRLPATTLGGACLQASRGAQTAAATAPRIKKFAIYRWDPDKAGDKPHMQTYEVDLNKCGPMVLDALIKIKNEVDSTLTFRRSCREGICGSCAMNINGGNTLACTRRIDTNLNKVSKIYPLPHMYVIKDLVPDLSNFYAQYKSIEPYLKKKDESQEGKQQYLQSIEEREKLDGAAACILCACCSTSCPSYWWNGDKYLGPAVLMQAYRWMIDSRDDFTEERLAKLQDPFSLYRCHTIMNCTRTCPKGLNPGKAIAEIKKMMATYKEKKASV [L183A;Y184A;E185A], for which the “effect of a mutation on the interaction” value is reported as “disrupting interaction strength”.

For MAAVVALSLRRRLPATTLGGACLQASRGAQTAAATAPRIKKFAIYRWDPDKAGDKPHMQTYEVDLNKCGPMVLDALIKIKNEVDSTLTFRRSCREGICGSCAMNINGGNTLACTRRIDTNLNKVSKIYPLPHMYVIKDLVPDLSNFYAQYKSIEPYLKKKDESQEGKQQYLQSIEEREKLDGLYECILCACCSTSCPAAAAAGDKYLGPAVLMQAYRWMIDSRDDFTEERLAKLQDPFSLYRCHTIMNCTRTCPKGLNPGKAIAEIKKMMATYKEKKASV [S198A;Y199A;W200A;W201A;N202A], the “effect of a mutation on the interaction” value is listed as “disrupting interaction strength”.

On to MAAVVALSLRRRLPATTLGGACLQASRGAQTAAATAPRIKKFAIYRWDPDKAGDKPHMQTYEVDLNKCGPMVLDALIKIKNEVDSTLTFRRSCREGICGSCAMNINGGNTLACTRRIDTNLNKVSKIYPLPHMYVIKDLVPDLSNFYAQYKSIEPYLKKKDESQEGKQQYAAAIEEREKLDGLYECILCACCSTSCPSYWWNGDKYLGPAVLMQAYRWMIDSRDDFTEERLAKLQDPFSLYRCHTIMNCTRTCPKGLNPGKAIAEIKKMMATYKEKKASV [L171A;Q172A;S173A], for which the “effect of a mutation on the interaction” value is reported as “increasing interaction strength”.

As to MAAVVALSLRRRLPATTLGGACLQASRGAQTAAATAPRIKKFAIYRWDPDKAGDKPHMQTYEVDLNKCGPMVLDALIKIKNEVDSTLTFRRSCREGICGSCAMNINGGNTLACTRRIDTNLNKVSKIYPLPHMYVIKDLVPDLSNAAAAAASAEPYLKKKDESQEGKQQYLQSIEEREKLDGLYECILCACCSTSCPSYWWNGDKYLGPAVLMQAYRWMIDSRDDFTEERLAKLQDPFSLYRCHTIMNCTRTCPKGLNPGKAIAEIKKMMATYKEKKASV [F146A;Y147A;Q149A;Y150A;K151A;I153A], the “effect of a mutation on the interaction” value is reported as “disrupting interaction strength”.

Take MAAVVALSLRRRLPATTLGGACLQASRGAQTAAATAPRIKKFAIYRWDPDKAGDKPHMQTYEVDLNKCGPMVLDALIKIKNEVDSTLTFRRSCREGICGSCAMNINGGNTLACTRRIDTNLNKVSKIYPLPHMYVIKDLVPDLSNFYAQYKSIEPYLKKKDESQEGKQQYLQSIEEAEAAAGLYECILCACCSTSCPSYWWNGDKYLGPAVLMQAYRWMIDSRDDFTEERLAKLQDPFSLYRCHTIMNCTRTCPKGLNPGKAIAEIKKMMATYKEKKASV [R177A;K179A;L180A;D181A]: the “effect of a mutation on the interaction” value was “increasing interaction strength”.

Regarding MAAVVALSLRRRLPATTLGGACLQASRGAQTAAATAPRIKKFAIYRWDPDKAGDKPHMQTYEVDLNKCGPMVLDALIKIKNEVDSTLTFRRSCREGICGSCAMNINGGNTLACTRRIDTNLNKVSKIYPLPHMYVIKDLVPDLSNAYAQYKSIEPYLKKKDESQEGKQQYLQSIEEREKLDGLYECILCACCSTSCPSYWWNGDKYLGPAVLMQAYRWMIDSRDDFTEERLAKLQDPFSLYRCHTIMNCTRTCPKGLNPGKAIAEIKKMMATYKEKKASV [F146A], the “effect of a mutation on the interaction” value is “decreasing interaction strength”.

The variants in the next assay derive from B2. Particulars: with hsc20_human HSCB.
Consider MSRHSRLQRQVLSAAADLLRAGRGKPGAEARVRAEFRQHAGLPRSDVLRIEYLYRRGRRQLQLLRSGHATAMGAFVRPRAPTGEPGGVGCQPDDGDSPRNPHDSTGAPETRPDGR [L14A;Y15A;R16A], for which the “effect of a mutation on the interaction” value is given as “disrupting interaction strength”.

On to MSRHSRLQRQVLSLYRDLLRAGRGKPGAEARVRAEFRQHAGLPRSDVLRIEYLYPRGRRQLQLLRSGHATAMGAFVRPRAPTGEPGGVGCQPDDGDSPRNPHDSTGAPETRPDGR [R55P], for which the “effect of a mutation on the interaction” value is given as “with no effect”.

For MSRHSRLQRQVLSLYRDLLRAGRGKPGAEARVRAEFRQHAGLPRSDVLRIEYLYRRRRRQLQLLRSGHATAMGAFVRPRAPTGEPGGVGCQPDDGDSPRNPHDSTGAPETRPDGR [G57R], the “effect of a mutation on the interaction” value is reported as “with no effect”.

Regarding MSRHSRLQRQVLSLYRDLLRAGRGKPGAEARVRAEFRQHAGLPRSDVLRIESLYRDGRRQLQLLRSGHATAMGAFVRPRAPTGEPGGVGCQPDDGDSPRNPHDSTGAPETRPDGR [Y52S;R56D], the “effect of a mutation on the interaction” value is recorded as “decreasing interaction strength”.

Consider MSRHSRLQRQVLSVFKDLLRAGRGKPGAEARVRAEFRQHAGLPRSDVLRIEYLYRRGRRQLQLLRSGHATAMGAFVRPRAPTGEPGGVGCQPDDGDSPRNPHDSTGAPETRPDGR [L14V;Y15F;R16K], for which the “effect of a mutation on the interaction” value is on record as “with no effect”.

On to MSRHSRLQRQVLYLYRRLLRAGRGKPGAEARVRAEFRQHAGLPRSDVLRIEYLYRRGRRQLQLLRSGHATAMGAFVRPRAPTGEPGGVGCQPDDGDSPRNPHDSTGAPETRPDGR [S13Y;D17R], for which the “effect of a mutation on the interaction” value is reported as “disrupting interaction strength”.

On to MSRHSRLQRQVLSLYRDLLRAGRGKPGAEARVRAEFRQHAGLPRSDVLRIEYAAARGRRQLQLLRSGHATAMGAFVRPRAPTGEPGGVGCQPDDGDSPRNPHDSTGAPETRPDGR [L53A;Y54A;R55A], for which the “effect of a mutation on the interaction” value is listed as “with no effect”.

The variants in another assay derive from B3. Particulars: with sdhb_human SDHB.
For the variant MSRHSRLQRQVLSLYRDLLRAGRGKPGAEARVRAEFRQHAGLPRSDVLRIEYLYRRGRRQAQLAASGHATAMGAFVRPRAPTGEPGGVGCQPDDGDSPRNPHDSTGAPETRPDGR [L61A;L64A;R65A], the “effect of a mutation on the interaction” value was “decreasing interaction strength”.

For MSRHSRLQRQVLSLYRDLLRAGRGKPGAEARVRAEFRQHAGLPRSDVLRIEYAAARGRRQAQLAASGHATAMGAFVRPRAPTGEPGGVGCQPDDGDSPRNPHDSTGAPETRPDGR [L53A;Y54A;R55A;L61A;L64A;R65A], the “effect of a mutation on the interaction” value is “disrupting interaction strength”.

As to MSRHSRLQRQVLSLYRDLLRAGRGKPGAEARVRAEFRQHAGLPRSDVLRIEYLYRAAAAQLQLLRSGHATAMGAFVRPRAPTGEPGGVGCQPDDGDSPRNPHDSTGAPETRPDGR [R56A;G57A;R58A;R59A], the “effect of a mutation on the interaction” value is given as “decreasing interaction strength”.

Turning to MSRHSRLQRQVLSLYRDLLRAGRGKPGAEARVRAEFRQHAGLPRSDVLRIEYAAAAAAAQLQLLRSGHATAMGAFVRPRAPTGEPGGVGCQPDDGDSPRNPHDSTGAPETRPDGR [L53A;Y54A;R55A;R56A;G57A;R58A;R59A], the “effect of a mutation on the interaction” value is on record as “disrupting interaction strength”.

Variants of B3 are the subject of a further assay. Particulars: with sdhb_human SDHB. This is another data set of the same source.
Regarding MSRHSRLQRQVLSLYRDLLRAGRGKPGAEARVRAEFRQHAGLPRSDVLRIEYLYRRRRRQLQLLRSGHATAMGAFVRPRAPTGEPGGVGCQPDDGDSPRNPHDSTGAPETRPDGR [G57R], the “effect of a mutation on the interaction” value is given as “disrupting interaction strength”.

MSRHSRLQRQVLSAAADLLRAGRGKPGAEARVRAEFRQHAGLPRSDVLRIEYLYRRGRRQLQLLRSGHATAMGAFVRPRAPTGEPGGVGCQPDDGDSPRNPHDSTGAPETRPDGR [L14A;Y15A;R16A]: the “effect of a mutation on the interaction” value was “with no effect”.

As for MSRHSRLQRQVLSLYRDLLRAGRGKPGAEARVRAEFRQHAGLPRSDVLRIEYLYPRGRRQLQLLRSGHATAMGAFVRPRAPTGEPGGVGCQPDDGDSPRNPHDSTGAPETRPDGR [R55P], the “effect of a mutation on the interaction” value is reported as “decreasing interaction strength”.

In the case of MSRHSRLQRQVLSLYRDLLRAGRGKPGAEARVRAEFRQHAGLPRSDVLRIEYAAARGRRQLQLLRSGHATAMGAFVRPRAPTGEPGGVGCQPDDGDSPRNPHDSTGAPETRPDGR [L53A;Y54A;R55A], the “effect of a mutation on the interaction” value is given as “decreasing interaction strength”.
